# In paper doi:10.1101/2025.05.23.655772:
# Assays:
# [1] = biological target: catalytically inactive USP5 C335A (human) (UniProt P45974); assay: FRET or BRET
# [2] = biological target: ubiquitin-specific protease 5, wild type (human) (UniProt P45974); assay: thermal shift assay
# ubiquitin-specific protease 5, wild type (human), sequence (P45974 whole entry): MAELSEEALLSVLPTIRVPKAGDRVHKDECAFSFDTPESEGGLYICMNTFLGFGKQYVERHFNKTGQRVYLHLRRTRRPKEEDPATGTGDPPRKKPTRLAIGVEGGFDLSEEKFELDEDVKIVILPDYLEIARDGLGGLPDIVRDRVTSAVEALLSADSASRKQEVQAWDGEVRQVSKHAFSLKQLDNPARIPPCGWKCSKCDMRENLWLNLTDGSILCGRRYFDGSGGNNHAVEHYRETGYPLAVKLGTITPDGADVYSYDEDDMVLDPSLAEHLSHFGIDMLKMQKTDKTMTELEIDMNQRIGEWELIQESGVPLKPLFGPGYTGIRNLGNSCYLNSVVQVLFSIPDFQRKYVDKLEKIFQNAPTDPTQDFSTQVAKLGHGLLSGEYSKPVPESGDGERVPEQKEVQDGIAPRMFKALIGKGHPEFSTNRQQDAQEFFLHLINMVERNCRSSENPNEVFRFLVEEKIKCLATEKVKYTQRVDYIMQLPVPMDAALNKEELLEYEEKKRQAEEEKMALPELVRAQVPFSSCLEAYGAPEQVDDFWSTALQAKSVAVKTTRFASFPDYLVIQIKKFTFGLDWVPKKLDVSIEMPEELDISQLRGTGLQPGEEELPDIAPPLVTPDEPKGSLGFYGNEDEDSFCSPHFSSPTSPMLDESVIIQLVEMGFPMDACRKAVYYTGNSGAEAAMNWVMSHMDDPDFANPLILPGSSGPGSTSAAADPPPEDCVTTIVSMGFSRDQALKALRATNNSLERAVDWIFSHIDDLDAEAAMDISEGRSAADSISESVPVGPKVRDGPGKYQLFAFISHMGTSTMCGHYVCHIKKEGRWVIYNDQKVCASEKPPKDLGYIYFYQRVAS
# catalytically inactive USP5 C335A (human), sequence (P45974 whole entry C335A): as the sequence (P45974 whole entry) above, with C335A counted along it
Substance,Kd [1],Tm of the covalent complex [2]
Cy5-labelled SDE2UBL (from UniProt Q6IQ49 1-77) (domain or fragment),1 µM,
"ISG15-PA, ISG15 propargylamide activity-based probe (from UniProt P05161 1-157)",,57.6 °C
